In patent US20230094463A1 (TRUEBINDING, published 2023):
Numbering of substitutions follows the chain as printed. Names and notes keep the numbering of the source.

B1: F846C.1F5 (antibody, V domains shown)
VH: QIQLVQSGPELKKPGETVKISCKASGYTFTNYGMNWVKQAPGKGLKWMGWINTYTGEPSYADDFKGRFAFSLETSASTAYLQINNLKNEDMATYFCARWGGYDGDYYAMDYWGQGTSVTVSS
VL: NIMMTQSPSSLAVSAGEKVTMSCKSSQSVLYSSNQKNYLAWYQQKPGQSPKLLIYWASTRESGVPDRFTGSGSGTDFTLTISSVQPEDLAVYYCHQYLSSLTFGAGTKLELK
notes: also called 846.1F5
B2: IMT001 (TB001) (antibody, V domains shown)
VH: QVQLVQSGSELKKPGASVKVSCKASGYTFTNYGMNWVRQAPGQGLKWMGWINTNTGEPTYVEEFTGRFVFSLETSVSTAYLQISSLKAEDTAVYFCAPYDNFFAYWGQGTTVTVSS
VL: DIVLTQSPLSLPVTPGEPASISCRSSKSLLYKDGKTYLNWFLQKPGQSPQLLIYLMSTHASGVPDRFSGSGSGTDFTLKISRVEAEDVGVYYCQQLVDYPLTFGGGTKLEIK
notes: anti-Gal3 antibody; also called IMT001-4
B3: 13G4.2F8 (antibody, V domains shown)
VH: QVQLQQPGAELVKPGASVKLSCKASGYTFTSYWMHWVKQRPGQGLEWIGMIHPNSGSTDYNEKFKNKATLNVDKSSSTAYIQLSSLTSEDSAVYYCTRWGIYYYARDYWGQGTTLTVSS
VL: DIVMTQSQKFMSTSVGERVSITCKASQNVGTNVAWYQQKAGQSLELLIYGASNRHTGVPDRFTGSGSGTDFTLTITNVQSEDMTNYFCEQYSNFPLTFGAGTKLELK
B4: IMT006 (TB006) (antibody, V domains shown)
VH: QVQLVQSGAEVKKPGASVKVSCKASGYSFTNYYMHWVRQAPGQRLEWMGWIYPGSGNTNYNEKFQGRVTITADTSASTAYMELSSLRSEDTAVYYCSTAPGGFDVWGQGTTVTVSS
VL: DIVMTQTPLSLSVTPGQPASISCKSSKSLLHSDGITYLYWYLQKPGQSPQLLIYRMSNLASGVPDRFSGSGSGTDFTLKISRVEAEDVGVYYCAQMLEFPLTFGQGTKLEIK
notes: anti-Gal3 antibody
B5: 20D11.2C6 (antibody, V domains shown)
VH: EVQLQQSGPELVKPGASVKISCKASGYTFTDFYINWVKQSHGKSLEWIGDINPKNGGINYNPKFKIKATLTVDKSSSTSYMDLRGLTSEDSAVYYCTSGYGFPYWGQGTLVTVSA
VL: DIQMNQSPSSLSASLGDTITITCRASQNIYIWLSWYQQKPGNIPKLLIYKASNLHTGVPSRFSGSGSGTDFTLTISTLQPEDIATYFCLQGQSYPLTFGAGTKLEMK
B6: 15G7.2A7 (antibody, V domains shown)
VH: B5 VH with F32Y, I34M, K54N, I58T, P62Q, I66G, S79A, D82E, G85S
VL: B5 VL with T20S, Y30N, K45Q, T77S, F87Y, E105V
B7: 19B5.2E6 (antibody, V domains shown)
VH: QIQLVQSGPELKKPGETVKISCKASGYTFTTYAMSWVKQAPGKGLKWMGWINTYSGVPTYADDLKGRFAFSLETSASTAYLQINNLKNEDTATYFCARGPYAMDYWGQGTSVTVSS
VL: DIQMTQTTSSLSASLGDRVTISCSASQGINNYLNWYQQKPDGTVKLLIYYASSLHSGVPSRFSGSGSGTDYSLTISNLEPEDIATYYCQQYSQVPYTFGSGTKLEIK
B8: 20H5.A3 (antibody, V domains shown)
VH: B7 VH with T17S, T28A, A33G, K38Q, I51V, Y60C, L64F, K87R
VL: B7 VL with S22N, G28D, N30S, A51T, H55L, Y87F, Q93K, V94L, K103H
B9: 23H9.2E4 (antibody, V domains shown)
VH: B7 VH
VL: B7 VL
B10: 6H6.2D6 (antibody, V domains shown)
VH: B7 VH with A33G, G49A, L64F, K87T
VL: B7 VL with N30S, A51T, Q93E, V94L

Columns and labels:
[1] = biological target: T1, Human GAL3 protein (TrueBinding, QCB200349 / QCB200352; R&D Systems, 8259-GA) (human, UniProt P17931 2-250); assay: blocking ELISA (GAL3 coated; antibody + biotinylated ITGa3)
T1 construct: also called human galectin-3

[2] = biological target: T1, Human GAL3 protein (TrueBinding, …); assay: blocking ELISA (GAL3 coated; antibody + biotinylated ITGaV)
[3] = biological target: T1, Human GAL3 protein (TrueBinding, …); assay: blocking ELISA (GAL3 coated; antibody + biotinylated ITGb1)
[4] = biological target: T1, Human GAL3 protein (TrueBinding, …); assay: blocking ELISA (GAL3 coated; antibody + biotinylated ITGb3)
[5] = biological target: T2, Human Galectin-3 protein (Acro Biosystems, GA3-H5129) (human, UniProt P17931 2-250); assay: ELISA, blocking of INSR binding to coated Gal3
T2 construct: Bought protein; also called Gal3-ECD-His; Gal3-His; not shown: linker-spaced 6-histidine tag

[6] = biological target: T2, Human Galectin-3 protein (Acro …); assay: ELISA, blocking of INSR binding to coated Gal3; remark: listed apart in the source
[7] = biological target: T2, Human Galectin-3 protein (Acro …); assay: SPR (Biacore T200), antibody captured, Galectin-3 as analyte
[8] = biological target: T2, Human Galectin-3 protein (Acro …); assay: blocking ELISA (Gal3 coated; antibody 3 µg/mL + INSR)
[9] = biological target: T2, Human Galectin-3 protein (Acro …); assay: SPR (Biacore T200; antibody captured via anti-Fc, Galectin-3 analyte, 1:1 fit)
[10] = biological target: T1, Human GAL3 protein (TrueBinding, …); assay: cell-based or functional assay
[11] = biological target: T3, Gal3 Peptide 7 (AYPGAPGAYPGAPAPGVYPG) (human); assay: peptide ELISA (peptide coated; antibody hIgG4 [S228P], 5 µg/mL)
T3 peptide: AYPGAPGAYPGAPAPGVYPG

[12] = biological target: T4, Gal3 Peptide 1 (ADNFSLHDALSGSGNPNPQG) (human); assay: as above
T4 peptide: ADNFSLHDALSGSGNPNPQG

[13] = biological target: T5, Gal3 Peptide 6 (GAYPGQAPPGAYPGAPGAYP) (human); assay: as above
T5 peptide: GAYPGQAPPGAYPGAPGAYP

[14] = biological target: T5, Gal3 Peptide 6 (GAYPGQAPPGAYPGAPGAYP); assay: peptide ELISA: Gal3 peptide coated on the plate, antibody (hIgG4 S228P) at 5 µg/mL, anti-human IgG-HRP, A450 (Example 18)
[15] = biological target: T3, Gal3 Peptide 7 (AYPGAPGAYPGAPAPGVYPG); assay: as above
[16] = biological target: T4, Gal3 Peptide 1 (ADNFSLHDALSGSGNPNPQG); assay: as above
[17] = biological target: T3, Gal3 Peptide 7 (AYPGAPGAYPGAPAPGVYPG); assay: peptide ELISA (peptide coated)
[18] = biological target: T4, Gal3 Peptide 1 (ADNFSLHDALSGSGNPNPQG); assay: peptide ELISA (peptide coated)

Row | Binder | percent blockade of GAL3-ITGa3 interaction [1] [%] | percent blockade of GAL3-ITGaV interaction [2] [%] | percent blockade of GAL3-ITGb1 interaction [3] [%] | percent blockade of GAL3-ITGb3 interaction [4] [%] | IC50 (read off the curve) [5] [µg/mL] | Gal3-INSR Blocking @ 3 µg/mL [6] [%] | Kd [7] [nM] | reduction of Gal3-INSR binding (%) [8] [%] | Kd [9] [nM] | inhibition of Jurkat T cell adhesion [10] [%] | Gal3-INSR binding remaining, % of unblocked sample [8] [%] | binding result [11] | binding result [12] | binding result [13] | binding result [14] | binding result [15] | binding result [16] | binding result [17] | binding result [18]
1 | B1 | > 90 | > 90 | > 90 | > 90 | – | – | – | – | – | – | – | – | – | – | – | – | – | – | –
2 | B2 | > 90 | > 90 | > 90 | > 90 | ~0.8 | 100 | 6.09 | – | – | – | – | – | – | – | – | – | – | – | –
3 | B3 | < 35 | < 30 | – | < 10 | – | 11 | 2.53 | ≤ 30 | 18.4 | – | – | – | – | – | – | – | – | – | –
4 | B4 | > 90 | > 90 | > 90 | > 90 | ~0.7 | 100 | 16.5 | – | – | – | – | – | – | – | – | – | – | – | –
5 | B5 | > 90 | > 90 | – | > 90 | – | 100 | 27.8 | – | – | > 90 | < 5 | – | – | – | – | – | – | – | –
6 | B6 | – | – | – | – | – | 100 | 11.3 | – | 27.8 | – | – | – | – | – | – | – | – | – | –
7 | B7 | > 90 | > 90 | – | > 90 | – | 100 | < 1 | – | – | – | < 5 | binds | binds | – | – | – | – | – | –
8 | B8 | > 90 | > 90 | – | > 90 | ~0.5 | 100 | 3.95 | – | – | – | < 5 | binds | binds | binds | – | – | – | – | –
9 | B9 | > 90 | > 90 | – | > 90 | – | 100 | 4.26 | – | – | – | < 5 | – | – | – | binds | binds | binds | – | –
10 | B10 | – | – | – | – | ~0.5 | 100 | 4.86 | – | – | – | < 5 | – | – | – | – | – | – | binds | binds
